From article doi:10.64898/2025.12.03.692196 come the findings set out here.

For experiment [1], the target named is human YRDC lacking the N-terminal 43 residues (ΔN43 construct) (human). Put plainly: mass photometry.
For experiment [2] the target is unchanged. Put plainly: native gel or EMSA. For orientation: Mobility shift assays separate free from complexed probe on a gel.
For experiment [3] the target is unchanged. Put plainly: native MS.
Experiment [4] concerns the target YRDC_(I178T), GAMOS-associated variant of the ΔN43 construct (human). As to the kind of experiment: mass photometry.
For experiment [5], the target named is YRDC_(ΔL222), GAMOS-associated variant of the ΔN43 construct (human). As to the kind of experiment: mass photometry.
The target is the same in experiment [6]. Put plainly: native gel or EMSA.
Experiment [7] has as its target YRDC_(A41V), GAMOS-associated variant of the ΔN43 construct (human). As to the kind of experiment: mass photometry.
Experiment [8] shares this target. Put plainly: native gel or EMSA.

By stoichiometry N is commonly meant the number of molecules, sites or subunits per partner or assembly. “human YRDC lacking the N-terminal 43 residues (ΔN43 construct) (enzyme)”: the stoichiometry N in experiment [1], in experiment [2] and in experiment [3] was 2 each time.
For the substance “YRDC_(I178T), GAMOS-associated variant of the ΔN43 construct (enzyme)”, the dimer fraction in experiment [4] was found to be 19%.
Consider “YRDC_(ΔL222), GAMOS-associated variant of the ΔN43 construct (enzyme)”, for which, in experiment [5], the tetramer fraction came out at 27% and the trimer fraction is 44%. The stoichiometry N in experiment [6] is 2.
For the substance “YRDC_(A41V), GAMOS-associated variant of the ΔN43 construct (enzyme)”, in experiment [7], the tetramer fraction turned out to be 24% and the trimer fraction turned out to be 28%. The same substance came in with a stoichiometry N in experiment [8] of 2.
